From patent US20220289795, “EFFICIENT METHOD FOR PREPARING PPR PROTEIN AND USE OF THE SAME” (EditForce, Inc., published 2022) come the findings set out here.

Holding throughout (assay): ELONA; RPB-ELISA
On the technique in general: An ELISA detects its analyte on a solid surface through an enzyme-linked reagent.

One series concerns the target T1, v3.1_PPR11 (Artificial Sequence).
T1 chain: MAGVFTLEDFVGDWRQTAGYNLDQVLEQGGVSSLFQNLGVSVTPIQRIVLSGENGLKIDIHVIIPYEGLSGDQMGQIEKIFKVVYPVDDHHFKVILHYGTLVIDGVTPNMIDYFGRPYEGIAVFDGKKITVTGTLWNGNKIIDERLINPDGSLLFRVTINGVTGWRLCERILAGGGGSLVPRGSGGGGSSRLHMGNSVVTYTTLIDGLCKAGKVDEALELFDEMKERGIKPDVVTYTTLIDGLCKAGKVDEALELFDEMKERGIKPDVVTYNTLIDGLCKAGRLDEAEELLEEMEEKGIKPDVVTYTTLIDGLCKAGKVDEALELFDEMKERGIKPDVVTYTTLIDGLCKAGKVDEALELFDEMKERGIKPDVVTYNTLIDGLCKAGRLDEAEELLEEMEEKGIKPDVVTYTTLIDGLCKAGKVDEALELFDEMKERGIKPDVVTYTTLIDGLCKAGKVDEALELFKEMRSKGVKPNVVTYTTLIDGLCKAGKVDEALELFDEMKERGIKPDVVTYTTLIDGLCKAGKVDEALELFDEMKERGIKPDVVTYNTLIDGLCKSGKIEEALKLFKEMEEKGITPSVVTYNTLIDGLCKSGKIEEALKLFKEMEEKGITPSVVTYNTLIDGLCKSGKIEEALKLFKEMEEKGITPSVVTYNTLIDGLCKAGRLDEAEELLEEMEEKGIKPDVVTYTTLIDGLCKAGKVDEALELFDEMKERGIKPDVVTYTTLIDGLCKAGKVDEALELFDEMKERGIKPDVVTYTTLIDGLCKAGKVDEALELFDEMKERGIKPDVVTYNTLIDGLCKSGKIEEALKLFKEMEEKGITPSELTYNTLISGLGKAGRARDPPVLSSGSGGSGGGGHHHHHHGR
The note with it: tags: luciferase fusion; label: 5'-biotin.

A further series has as its target T2, NL_v2_PPR11 (Artificial Sequence).
T2 chain: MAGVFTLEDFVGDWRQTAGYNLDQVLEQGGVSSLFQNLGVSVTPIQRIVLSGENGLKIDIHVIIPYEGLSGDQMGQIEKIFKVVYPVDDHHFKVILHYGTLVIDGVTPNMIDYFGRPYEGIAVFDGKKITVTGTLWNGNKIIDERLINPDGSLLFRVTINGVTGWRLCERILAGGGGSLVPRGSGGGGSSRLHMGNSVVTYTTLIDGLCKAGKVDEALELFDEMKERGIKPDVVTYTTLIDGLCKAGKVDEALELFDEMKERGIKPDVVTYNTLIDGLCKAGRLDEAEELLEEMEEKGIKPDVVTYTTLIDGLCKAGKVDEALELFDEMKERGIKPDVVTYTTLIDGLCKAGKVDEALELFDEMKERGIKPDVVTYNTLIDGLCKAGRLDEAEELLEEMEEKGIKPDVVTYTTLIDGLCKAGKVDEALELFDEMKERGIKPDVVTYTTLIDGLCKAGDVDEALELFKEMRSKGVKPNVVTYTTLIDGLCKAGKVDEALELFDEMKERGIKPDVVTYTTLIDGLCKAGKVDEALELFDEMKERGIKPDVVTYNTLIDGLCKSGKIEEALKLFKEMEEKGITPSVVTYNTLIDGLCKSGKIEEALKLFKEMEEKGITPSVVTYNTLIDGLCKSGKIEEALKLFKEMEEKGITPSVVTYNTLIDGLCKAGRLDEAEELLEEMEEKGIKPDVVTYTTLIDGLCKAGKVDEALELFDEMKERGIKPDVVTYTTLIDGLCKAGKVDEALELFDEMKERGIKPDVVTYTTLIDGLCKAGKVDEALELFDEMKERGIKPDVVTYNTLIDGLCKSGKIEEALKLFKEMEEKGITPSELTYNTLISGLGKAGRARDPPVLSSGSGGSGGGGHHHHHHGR
The note with it: tags: N-term luciferase, C-term 6xHis; label: 5'-biotin.

The target in another series is T3, NL_v2_PPR10 (Artificial Sequence).
T3 chain: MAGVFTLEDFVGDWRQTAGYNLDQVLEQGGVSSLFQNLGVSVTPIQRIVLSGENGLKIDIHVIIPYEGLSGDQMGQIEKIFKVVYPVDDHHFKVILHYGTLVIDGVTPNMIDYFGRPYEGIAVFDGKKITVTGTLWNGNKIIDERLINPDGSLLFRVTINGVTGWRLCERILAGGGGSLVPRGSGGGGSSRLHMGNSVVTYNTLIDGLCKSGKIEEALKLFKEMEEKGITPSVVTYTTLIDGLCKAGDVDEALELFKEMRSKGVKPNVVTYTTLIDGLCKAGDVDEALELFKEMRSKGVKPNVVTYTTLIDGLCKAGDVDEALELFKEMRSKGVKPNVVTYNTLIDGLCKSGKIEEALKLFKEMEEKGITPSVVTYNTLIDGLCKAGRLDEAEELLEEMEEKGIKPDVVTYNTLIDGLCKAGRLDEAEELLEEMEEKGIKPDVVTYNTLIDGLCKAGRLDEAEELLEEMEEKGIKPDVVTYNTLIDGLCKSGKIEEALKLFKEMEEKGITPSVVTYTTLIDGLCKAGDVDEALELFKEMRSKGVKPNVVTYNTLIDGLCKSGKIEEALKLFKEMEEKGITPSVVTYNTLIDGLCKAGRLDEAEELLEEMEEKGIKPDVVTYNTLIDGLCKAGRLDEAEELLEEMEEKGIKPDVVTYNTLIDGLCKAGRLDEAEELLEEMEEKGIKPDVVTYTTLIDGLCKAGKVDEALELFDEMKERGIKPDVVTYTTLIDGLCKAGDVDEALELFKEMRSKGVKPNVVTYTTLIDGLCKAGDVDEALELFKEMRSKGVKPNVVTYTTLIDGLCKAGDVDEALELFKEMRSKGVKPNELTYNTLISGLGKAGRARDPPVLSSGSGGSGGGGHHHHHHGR
The note with it: tags: N-term luciferase, C-term 6xHis; label: 5'-biotin.

Another series deals with T4, v3.1_PPR10 (Artificial Sequence).
T4 chain: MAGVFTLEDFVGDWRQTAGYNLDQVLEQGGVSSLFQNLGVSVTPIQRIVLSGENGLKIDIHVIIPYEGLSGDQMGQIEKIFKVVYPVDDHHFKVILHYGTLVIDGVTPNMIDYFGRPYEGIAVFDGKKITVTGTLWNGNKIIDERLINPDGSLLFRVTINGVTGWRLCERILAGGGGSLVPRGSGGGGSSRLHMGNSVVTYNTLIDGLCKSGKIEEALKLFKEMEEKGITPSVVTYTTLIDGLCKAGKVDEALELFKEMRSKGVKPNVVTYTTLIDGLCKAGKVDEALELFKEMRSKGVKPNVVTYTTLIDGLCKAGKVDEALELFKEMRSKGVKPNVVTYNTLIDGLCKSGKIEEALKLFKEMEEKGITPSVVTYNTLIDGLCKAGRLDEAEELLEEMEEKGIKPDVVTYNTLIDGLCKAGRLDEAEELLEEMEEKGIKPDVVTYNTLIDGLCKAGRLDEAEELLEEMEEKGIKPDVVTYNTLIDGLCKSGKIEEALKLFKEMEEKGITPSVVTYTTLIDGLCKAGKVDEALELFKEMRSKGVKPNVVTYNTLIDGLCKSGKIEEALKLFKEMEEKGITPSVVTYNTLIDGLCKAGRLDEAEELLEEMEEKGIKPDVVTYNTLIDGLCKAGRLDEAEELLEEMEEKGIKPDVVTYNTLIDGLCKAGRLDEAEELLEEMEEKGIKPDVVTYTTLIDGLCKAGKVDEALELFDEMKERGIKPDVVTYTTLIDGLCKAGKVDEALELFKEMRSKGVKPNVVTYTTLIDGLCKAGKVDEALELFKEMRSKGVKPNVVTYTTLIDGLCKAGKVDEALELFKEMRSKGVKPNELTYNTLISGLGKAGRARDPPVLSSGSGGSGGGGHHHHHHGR
The note with it: tags: luciferase fusion; label: 5'-biotin.

The next series deals with T5, NL_v2_PPR12 (Artificial Sequence).
T5 chain: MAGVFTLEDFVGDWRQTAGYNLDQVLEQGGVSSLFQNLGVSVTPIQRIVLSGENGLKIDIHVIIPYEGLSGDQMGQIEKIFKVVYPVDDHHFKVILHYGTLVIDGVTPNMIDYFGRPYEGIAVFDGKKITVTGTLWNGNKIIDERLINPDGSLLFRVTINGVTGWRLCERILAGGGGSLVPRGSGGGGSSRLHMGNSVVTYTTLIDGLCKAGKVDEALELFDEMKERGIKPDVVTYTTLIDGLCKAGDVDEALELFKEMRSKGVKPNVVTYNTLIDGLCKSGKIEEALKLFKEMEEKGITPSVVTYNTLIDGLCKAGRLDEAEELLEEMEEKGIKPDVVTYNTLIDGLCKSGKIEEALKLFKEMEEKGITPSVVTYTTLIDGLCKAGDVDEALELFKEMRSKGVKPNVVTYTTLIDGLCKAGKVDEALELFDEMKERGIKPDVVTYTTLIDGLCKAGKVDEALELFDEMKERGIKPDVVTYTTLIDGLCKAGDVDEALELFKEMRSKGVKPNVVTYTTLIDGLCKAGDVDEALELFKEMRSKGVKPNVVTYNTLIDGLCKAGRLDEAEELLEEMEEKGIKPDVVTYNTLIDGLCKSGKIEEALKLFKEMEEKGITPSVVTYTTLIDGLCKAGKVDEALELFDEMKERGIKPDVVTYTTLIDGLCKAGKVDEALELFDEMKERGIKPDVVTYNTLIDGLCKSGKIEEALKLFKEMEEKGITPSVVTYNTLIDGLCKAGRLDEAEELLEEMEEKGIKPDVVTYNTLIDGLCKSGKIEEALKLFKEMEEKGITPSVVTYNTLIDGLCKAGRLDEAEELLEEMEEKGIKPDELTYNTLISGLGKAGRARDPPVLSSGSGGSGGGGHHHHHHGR
The note with it: tags: N-term luciferase, C-term 6xHis; label: 5'-biotin.

For the next series, the target named is T6, v3.1_PPR12 (Artificial Sequence).
T6 chain: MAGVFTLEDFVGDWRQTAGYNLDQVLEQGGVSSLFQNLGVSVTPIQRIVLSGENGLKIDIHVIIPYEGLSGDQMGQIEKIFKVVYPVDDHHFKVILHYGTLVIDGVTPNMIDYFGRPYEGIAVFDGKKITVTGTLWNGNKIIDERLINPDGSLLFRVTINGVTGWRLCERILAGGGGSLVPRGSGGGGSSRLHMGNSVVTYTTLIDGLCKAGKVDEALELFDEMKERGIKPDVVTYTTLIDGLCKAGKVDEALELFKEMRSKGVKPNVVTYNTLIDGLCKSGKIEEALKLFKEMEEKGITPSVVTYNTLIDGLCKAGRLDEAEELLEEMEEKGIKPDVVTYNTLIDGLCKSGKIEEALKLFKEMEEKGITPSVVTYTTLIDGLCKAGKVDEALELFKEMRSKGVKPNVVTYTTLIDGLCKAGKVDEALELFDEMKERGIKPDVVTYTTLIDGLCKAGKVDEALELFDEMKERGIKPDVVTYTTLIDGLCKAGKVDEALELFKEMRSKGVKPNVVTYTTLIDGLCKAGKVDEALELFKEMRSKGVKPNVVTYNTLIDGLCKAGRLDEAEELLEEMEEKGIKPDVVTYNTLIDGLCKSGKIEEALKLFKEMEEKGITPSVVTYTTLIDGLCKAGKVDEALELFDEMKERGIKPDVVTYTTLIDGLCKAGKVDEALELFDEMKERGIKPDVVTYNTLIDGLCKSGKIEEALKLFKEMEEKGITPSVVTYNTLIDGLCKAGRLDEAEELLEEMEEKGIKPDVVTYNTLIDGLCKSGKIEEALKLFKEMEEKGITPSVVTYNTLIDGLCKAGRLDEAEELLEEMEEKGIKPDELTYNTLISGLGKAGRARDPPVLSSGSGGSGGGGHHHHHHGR
The note with it: tags: luciferase fusion; label: 5'-biotin.

In the case of GACAUGCGGUGGUGAGGCCCUGGGCGACUG (ssRNA) [RNA_11], the binding signal turned out to be 2.6e+07 luminescence with v3.1_PPR11 and 1.2e+07 luminescence with NL_v2_PPR11.

Consider GACAUGCCAAACUUUCACUUUGAAAGACUG (ssRNA) [RNA_10], for which the figures for the binding signal with NL_v2_PPR10 and with v3.1_PPR10 were 7.8e+06 luminescence and 5.8e+07 luminescence, respectively.

For GACAUGCGACUCAGGAAUCGGCUCUGACUG (ssRNA) [RNA_12], the values for the binding signal with NL_v2_PPR12 and with v3.1_PPR12 were 3.8e+07 luminescence and 1.8e+07 luminescence, respectively.
